The text below walks through data of US8329637B2, “Method for the treatment of automimmune diseases comprising administering rapamycin and IL-10” (priority 2002, dated 2012).

For experiment [1], the system named is Tr1 and CD4+CD25+ T cells. The experiment can be described thus: Tr cell content (cytokine profile by CBA, CD4+CD25+ by FACS) in spleen, PLN and IIC of treated NOD mice. Conditions: islet infiltrating cells (FIG. 11). In kind it is cell-based, mouse. Here is the method: Cytokine production by CD4^+ T cells (left panels) and percentages of CD4^+CD25^+ T cells (right panels) were evaluated by CBA and FACS analysis respectively, in the spleen (A), pancreatic lymph nodes (PLN) (B), and islet infiltrating cells (IIC) (C) of untreated-diabetic NOD mice (gray bars), rapamycin-treated mice (white bars), or rapamycin+IL-10-treated mice (black bars). […] The percentages of CD4^+CD25^+ T cells were higher in the spleen, PLN, and IIC of both mice treated with rapamycin alone or rapamycin+IL-10 (black bars). Therefore, in rapamycin+IL-10 treated mice, Tr1 cells are present in the spleen and CD4^+CD25^+ Tr cells are present in the spleen, lymph nodes, and pancreas.
The mechanisms underlying long-term tolerance were analysed in tolerant mice of 50 weeks of age or older. […] However, the proportion of splenic CD4^+ T cells producing IL-4 was the same in both untreated and treated mice. […]
Flow cytometry. Cells were stained with the indicated Abs (all from BD), and were analyzed with a FACScan flow cytometer equipped with CellQuest software (BD).
Cytokine measurement. Cytokines present in the collected supernatants were quantified by sandwich ELISA or flow cytometry based assay (CBA), using standard commercially available kits (BD). The percentage of cells producing specific cytokines was measured by intracellular staining. […]
(In general: A flow cytometer gives signals particle by particle.)

The test system of a further experiment is NOD mice. The experiment can be described thus: Diabetes inhibition study in NOD mice. Format: in vivo, mouse. Here is the method:
(B) Pre-diabetic mice were treated daily starting from 11 weeks of age with either rapamycin, rapamycin+IL-10 or IL-10 alone.
NOD mice were treated from 11 weeks to 31 weeks of age with IL-10 (IL-10, n=7 mice), or rapamycin (RAPA, n=13 mice), or rapamycin+IL-10 (RAPA/IL-10 n=16 mice), or vehicle (CNTR, n=22 mice). Diabetes incidence, monitored by glycemia levels, was stable at least up to 60 weeks of age. Administration of rapamycin alone reduced diabetes incidence from 95% to 46%.
In our proposed protocol, down-regulation of inflammation should be achieved by IL-10, and blockade of T effector cell expansion should be achieved by rapamycin. Neither IL-10 nor rapamycin prevent T cell priming and therefore they should allow induction of antigen-specific T regulatory cells, and as described below, IL-10 should promote the induction and expansion of Tr1 cells. We investigated the effect of rapamycin alone or in combination with IL-10 in treating autoimmunity in the NOD mouse a model for type I diabetes. […] Inhibition of type I diabetes was evaluated by treating NOD mice daily starting at 11 weeks of age (i.e. pre-diabetic mice with periinsultis) with rapamycin, rapamycin+IL-10, or IL-10 alone. […]
Mice. […] Glucose level in the tail venous blood was quantified using Glucometer Elite system (Bayer, Wuppertal, Germany). […]
Diabetes inhibition study. […] Diabetes incidence was monitored by blood glucose levels.

The test system of experiment [2] is allogeneic C57BL/6 β-islets transplanted in diabetic Balb/c mice. Put plainly: Allogeneic β-islet transplantation (C57BL/6 into Balb/c), graft survival monitored by glycemia. In kind it is in vivo, mouse.
Description: Balb/c mice that had been rendered diabetic by streptozotocin injection were transplanted under the kidney capsule with purified allogeneic C57BL/6 β-islets. Mice were not treated (control, n=13 mice), or treated with rapamycin+antiTac+IL-10 (IL-10 protocol, n=16 mice) or rapamycin+antiTac+FK506 (Edmonton protocol, n=4 mice) for 30 days. Graft survival was monitored by glycemia levels. A graft was considered rejected when glycemia was higher than 250 mg/dl.
Balb/c mice that had been rendered diabetic by streptozotocin injection were transplanted under the kidney capsule with purified allogeneic C57BL/6 β-islets. Mice were not treated (control, n=8 mice), or treated with rapamycin in combination with IL-10 (rapa+IL10, n=8 mice) or IL10 only (n=4 mice). Graft survival was monitored by glycemia levels.
Allogeneic β-islet transplantation. A model of fully mismatched murine islet allotransplantation (C57BL/6 into Balb/C) was used.
Balb/c mice that had been rendered diabetic by streptozotocin injection were transplanted under the kidney capsule with purified allogeneic C57BL/6 β-islets.
Treatment of transplanted mice. […] Diabetes incidence was monitored by blood glucose levels.

Turning to `CO[C@H]1C[C@@H]2CC[C@@H](C)[C@@](O)(O2)C(=O)C(=O)N2CCCC[C@H]2C(=O)O[C@H]([C@H](C)C[C@@H]2CC[C@@H](O)[C@H](OC)C2)CC(=O)[C@H](C)/C=C(\C)[C@@H](O)[C@@H](OC)C(=O)[C@H](C)C[C@H](C)/C=C/C=C/C=C/1C` [rapamycin], the “CD4+CD25+ T cells as share of CD4+ T cells isolated from IIC” value in experiment [1] is on record as ~100%. Also, in the experiment with NOD mice (NOD mice treated from 11 to 31 weeks of age, vehicle 95% (FIG. 10A)), the diabetes incidence is recorded as 46%.

B1: IL-10: Human IL-10 (BD Biosciences), cytokine, 0.05 mg/Kg IP twice a day (protein, UniProt P22301 19-178, looked up)
Interleukin-10: SPGQGTQSENSCTHFPGNLPNMLRDLRDAFSRVKTFFQMKDQLDNLLLKESLLEDFKGYLGCQALSEMIQFYLEEVMPQAENQDPDIKAHVNSLGENLKTLRLRLRRCHRFLPCENKSKAVEQVKNAFNKLQEKGIYKAMSEFDIFINYIEAYMTMKIRN
B1: the long-term graft survival in experiment [2] (Balb/c mice treated for 30 days, without antiTac (FIG. 2)) is 30%. For the same molecule, the “prevention of graft rejection” value in experiment [2] (Balb/c mice, FIG. 2) is “not efficient in preventing graft rejection”. Besides, in the experiment on NOD mice (NOD mice treated from 11 to 31 weeks of age (FIG. 10A)), the “effect on the development of diabetes” value was “no significant effect”.
